The assay addresses T1, HLA-A*0205 (human).
T1 construct: Native HLA immunoprecipitated from shock-frozen tumor tissue
In words: HLA immunoprecipitation from glioblastoma tissue, peptide elution, ESI-LCMS/MS.

B1: PTP-001 (peptide)
peptide: ALTTLMHQL
notes: Natural HLA ligand eluted from glioblastoma tissue
In the case of B1, the binding result was “binds”.

The values are drawn from patent EP2105501A1 (Immatics Biotechnologies GmbH, dated 2009).
